{
  "source": "patent US20160280744A1",
  "binders": {"B1": {"name": "tandem-type tetramer PG, rPG-A4 (CGB19H-4D) (designed binder)", "chain": "MAYYDPETGTWYSGGRDTYKLILNGKTLKGETTTEAVDAATAEKVFKHYANEHGVHGHWTYDPETKTFTVTERPEVIDASELTPAVDTYKLILNGKTLKGETTTEAVDAATAEKVFKHYANEHGVHGHWTYDPETKTFTVTERPEVIDASELTPAVDTYKLILNGKTLKGETTTEAVDAATAEKVFKHYANEHGVHGHWTYDPETKTFTVTERPEVIDASELTPAVDTYKLILNGKTLKGETTTEAVDAATAEKVFKHYANEHGVHGHWTYDPETKTFTVTERPEVIDASELTPAVGGGGSGGGGSGGGGSGGGGCHHHHHH"}},
  "key": {"[1]": {"target": "human IgG (Oriental Yeast Co., ltd) (human)", "test": "pH gradient affinity chromatography, bound at pH 7.2, gradient 20 mM citric acid pH 6.0 to pH 2.4 over 80 min"}, "[2]": {"target": "human IgG (Oriental Yeast Co., ltd) (human)", "test": "affinity column (1 ml carrier with immobilised protein), human IgG 1 mg/ml at pH 7.2, 10% breakthrough, flow rate 0.4 mL/min"}, "[3]": {"target": "human IgG (Oriental Yeast Co., ltd) (human)", "test": "affinity column (1 ml carrier with immobilised protein), human IgG 1 mg/ml at pH 7.2, 10% breakthrough, flow rate 1.0 mL/min"}},
  "data": [
    {"binder": "B1", "values": [
      {"measurement": "pH at the peak of the elution of human IgG", "setting": "[1]", "result": 4.4, "unit": "pH"},
      {"measurement": "dynamic binding capacity (DBC)", "setting": "[2]", "result": 12.3, "unit": "mg"},
      {"measurement": "dynamic binding capacity (DBC)", "setting": "[3]", "result": 5.3, "unit": "mg"}
    ]}
  ]
}
